Test results as given in publication PMC9333443, “Structural insights into Pot1-ssDNA, Pot1-Tpz1 and Tpz1-Ccq1 Interactions within fission yeast shelterin complex” (PLoS Genetics, 2022).

Experiments:
[1] = molecular target: T1, Ccq1 (residues 123-439), without the deletion (S. pombe, UniProt Q10432 123-439); assay: SEC; co-expressed and co-purified complexes on gel filtration (calibrated for Tpz1CBM-Ccq1TAD); 25 mM Tris-HCl pH 8.0, 150 mM NaCl, 5 mM dithiothreitol; conditions: both partners purified
T1 construct: The methods describe only the deleted form; this undeleted form gave crystals that diffracted to about 4.0 Å; also called N-terminal region of Ccq1
T1 sequence (looked up): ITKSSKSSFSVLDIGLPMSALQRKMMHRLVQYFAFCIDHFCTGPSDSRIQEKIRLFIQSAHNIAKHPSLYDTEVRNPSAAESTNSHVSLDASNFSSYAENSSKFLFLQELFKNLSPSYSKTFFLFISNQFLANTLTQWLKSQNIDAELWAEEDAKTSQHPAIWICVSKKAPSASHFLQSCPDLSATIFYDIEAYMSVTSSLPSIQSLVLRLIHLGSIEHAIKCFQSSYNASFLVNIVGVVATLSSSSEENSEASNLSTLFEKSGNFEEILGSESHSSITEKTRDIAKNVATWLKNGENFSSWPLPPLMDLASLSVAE

[2] = molecular target: T2, Ccq1TAD (Ccq1 123-439 with deletion of residues 199-215), purified (S. pombe, UniProt Q10432 123-439, deletion of residues 199–215); assay: crystal structure; Tpz1CBM-Ccq1TAD complex, SAD, 2.4 Å; sitting drop at 4°C, 15% PEG4000, 200 mM potassium chloride, 50 mM magnesium chloride, 50 mM Tris-HCl pH 7.8; conditions: both partners purified
T2 construct: Two copies stand in the 2:2 complex with Tpz1CBM; not shown: His6, N-terminal, cleaved; SUMO, N-terminal, cleaved
T2 sequence (looked up): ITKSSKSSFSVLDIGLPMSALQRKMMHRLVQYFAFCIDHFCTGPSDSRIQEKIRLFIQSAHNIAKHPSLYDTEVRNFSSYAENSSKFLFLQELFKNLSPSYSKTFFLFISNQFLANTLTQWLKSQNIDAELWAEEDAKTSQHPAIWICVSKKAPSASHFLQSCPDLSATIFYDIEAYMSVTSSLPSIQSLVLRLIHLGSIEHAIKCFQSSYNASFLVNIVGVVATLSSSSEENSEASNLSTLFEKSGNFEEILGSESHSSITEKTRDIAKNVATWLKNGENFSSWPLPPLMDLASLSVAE

Pot1DBD [3] = molecular target: T3, Pot1DBD (Schizosaccharomyces pombe, UniProt O13988 2-339); assay: ITC; Kd only in figure; ITC: 25 mM Tris-HCl pH 8.0, 150 mM NaCl, 20 C; gel filtration (complex purification): 25 mM Tris-HCl pH 8.0, 150 mM NaCl, 5 mM DTT; conditions: protein: recombinant; tags: His6-SUMO (N-terminal, removed with ULP1); single strand
T3 sequence: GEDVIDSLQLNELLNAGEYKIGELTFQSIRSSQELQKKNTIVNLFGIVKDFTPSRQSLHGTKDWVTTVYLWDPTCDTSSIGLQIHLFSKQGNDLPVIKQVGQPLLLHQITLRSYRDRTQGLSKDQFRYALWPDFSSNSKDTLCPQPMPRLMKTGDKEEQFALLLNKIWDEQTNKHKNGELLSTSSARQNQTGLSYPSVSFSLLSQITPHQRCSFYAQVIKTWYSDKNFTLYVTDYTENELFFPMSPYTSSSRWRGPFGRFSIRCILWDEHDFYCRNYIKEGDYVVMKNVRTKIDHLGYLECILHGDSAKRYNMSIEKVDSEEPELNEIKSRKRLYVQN

Pot1 full length;Tpz1PIM = molecular target: T4, Pot1 full length;Tpz1PIM (Schizosaccharomyces …, UniProt O13988;O14246 1-555;164-240, |); assay: complex reconstitution; stable complex after mixing with Tel18; ITC: 25 mM Tris-HCl pH 8.0, 150 mM NaCl, 20 C; gel filtration (complex purification): 25 mM Tris-HCl pH 8.0, 150 mM NaCl, 5 mM DTT; conditions: protein: recombinant;recombinant, tags: His6-SUMO/GST system, co-expressed with Tpz1PIM;His6-SUMO/GST system, copies: 1;1, single strand
T4 sequence 1: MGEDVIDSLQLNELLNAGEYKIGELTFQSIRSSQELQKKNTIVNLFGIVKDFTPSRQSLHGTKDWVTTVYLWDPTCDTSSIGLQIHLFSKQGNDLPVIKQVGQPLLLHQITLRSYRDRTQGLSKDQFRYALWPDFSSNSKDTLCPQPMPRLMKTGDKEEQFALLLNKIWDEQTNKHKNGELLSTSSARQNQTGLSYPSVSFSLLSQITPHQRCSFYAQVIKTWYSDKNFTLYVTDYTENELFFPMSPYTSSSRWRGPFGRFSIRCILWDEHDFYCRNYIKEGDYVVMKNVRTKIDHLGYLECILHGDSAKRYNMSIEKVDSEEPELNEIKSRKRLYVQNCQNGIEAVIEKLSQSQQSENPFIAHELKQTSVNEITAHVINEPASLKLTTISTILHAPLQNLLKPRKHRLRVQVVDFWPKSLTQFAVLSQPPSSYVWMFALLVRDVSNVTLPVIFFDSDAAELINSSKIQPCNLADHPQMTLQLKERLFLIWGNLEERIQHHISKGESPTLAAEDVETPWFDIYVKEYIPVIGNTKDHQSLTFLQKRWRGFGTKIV
T4 sequence 2: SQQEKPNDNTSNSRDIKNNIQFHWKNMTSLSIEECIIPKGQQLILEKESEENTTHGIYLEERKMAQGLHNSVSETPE

Pot1DBD [4] = molecular target: T3, Pot1DBD; assay: gel filtration; 1:1 stoichiometry; ITC: 25 mM Tris-HCl pH 8.0, 150 mM NaCl, 20 C; gel filtration (complex purification): 25 mM Tris-HCl pH 8.0, 150 mM NaCl, 5 mM DTT; conditions: protein: recombinant; tags: His6-SUMO (N-terminal, removed with ULP1); single strand

Does EQIELEYKRKPIPDYDFMKGLETTLQELYVEHQSKKRRLELFQLTN (domain or fragment, S. pombe, UniProt O14246 425-470, looked up, not shown: GST, N-terminal, cleaved) [Tpz1CBM (Tpz1 425-470), purified] bind [1]?
Result: binds

What about the “stoichiometry N” value [2] of the same binder?
The value was 1 Tpz1CBM per Ccq1TAD (printed as 2:2).

Which results are given for GGTTACAGGGGTTACGGT (ssDNA) [Tel18]?
binding result (Pot1DBD [3]): binds; binding result (Pot1 full length;Tpz1PIM): binds

Does GGTTACGGTTACGGT (ssDNA) [Tel15] bind (Pot1DBD [3])?
Result: binds

Does GGTTACAGGGTTACGGT (ssDNA) [Tel17] bind (Pot1DBD [4])?
Result: binds
